What was measured:
Test in all cases: ELISA
[1] = target: H1 HA A/Solomon Islands/03/2006 (H1N1), recombinant soluble trimer (influenza A virus)
[2] = target: H3 HA A/Texas/50/2012, recombinant soluble trimer (influenza A virus)
[3] = target: H1 HA A/Texas/36/1991 (H1N1), recombinant soluble trimer (influenza A virus)

Measured: EC50 relative to wild type rFluA-20

B1: rFluA-20 heavy chain mutant Y100aA (antibody, V domains shown)
VH: QVQLQESGPGLVKPSETLSLTCSVSGVSVTSDIYYWTWIRQPPGKGLEWIGYIFYNGDTNYNPSLKSRVTMSIDTSKNEFSLRLTSVTAADTAVYFCARGTEDLGACSSGSCPNHWGQGTLVTVSS
VL: DIQMTQSPSSLSASIGDRVTITCRPSQNIRSFLNWFQHKPGKAPKLLIYAASNLQSGVPSRFSGSGSGTEFTLTIRSLQPEDFATYYCQQSYNTPPTFGQGTKVEIK
> 100 fold: all assays above

Source: patent US20220387578A1
